Experiments:
human CXCL1 (Gro alpha) [1] = target: T1, human CXCL1 (Gro alpha) (human, UniProt P09341 35-107); assay: cell-based or functional assay
T1 sequence: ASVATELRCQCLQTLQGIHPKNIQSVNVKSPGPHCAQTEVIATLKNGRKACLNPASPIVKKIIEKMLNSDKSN

human CXCL8 (IL-8) [2] = target: T2, human CXCL8 (IL-8) (human, UniProt P10145 28-99); assay: cell-based or functional assay
T2 sequence: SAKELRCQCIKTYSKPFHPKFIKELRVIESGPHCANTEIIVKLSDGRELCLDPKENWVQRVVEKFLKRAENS

[3] = target: T3, human CXCL8 point mutant L49A (human, UniProt P10145 28-99, limits assumed); assay: cell-based or functional assay
human CXCL8 (IL-8) [4] = target: T2, human CXCL8 (IL-8); assay: cell-based or functional assay; remark: listed apart in the source
[5] = target: human CXCL8 point mutant R6A (human, UniProt P10145 28-99, limits assumed); assay: SPR (Biacore 2000), antibody captured on Protein A
human CXCL1 (Gro alpha) [6] = target: T1, human CXCL1 (Gro alpha); assay: SPR (Biacore 2000), antibody captured on Protein A, chemokine as analyte, 25 C
Protocol: (§1) Biacore 2000 instrument and Biacore 2000 Evaluation Software Version 4.1 are used for surface plasmon resonance analysis. A […] chip is prepared using manufacturer's EDC/NHS amine coupling method. Briefly, the surfaces of all four flow cells are activated by injecting a 1:1 mixture of EDC/NHS for 7 minutes at 10 μL/min. Protein A is diluted to 100 μg/mL in 10 mM acetate, pH 4.5 buffer, and immobilized to achieve approximately 10,000 RU onto all 4 flow cells by 7-minute injection at a flow rate of 10 μL/minute. Unreacted sites are blocked with a 7-minute injection of ethanolamine at 10 μL/minute. Two injections of glycine (pH 1.5) for 30 seconds at 10 μL/minute are used to remove any non-covalently associated protein. Running buffer is HBS-EP+.
(§2) Antibody 1 or Antibody 2 is diluted to 2 μg/mL in running buffer, and approximately 400-600 RU is captured in flow cell (Fc). Ligands are diluted from 100 μg/mL to 50 nM in running buffer and then two-fold serially diluted in running buffer to 3.125 nM. Duplicate injections of each ligand concentration are injected at 100 μL/min for 150 seconds followed by a dissociation phase. The dissociation phase is 1800 seconds for all ligands. Regeneration is performed by injecting 10 mM glycine (pH 1.5) for 60 seconds at […] over all flow cells. Reference-subtracted data is collected as Fc2-Fc1, Fc3-Fc1, and Fc4-Fc1. The measurements are obtained at 25° C. The on-rate (kₒₙ) and off-rate (koff) for each ligand are evaluated using a “1:1 (mass transfer) Binding” binding model. The affinity […] is calculated from the binding kinetics according to the relationship: KD=koff/kₒₙ.

human CXCL2 (Gro beta) = target: T4, human CXCL2 (Gro beta) (human, UniProt P19875 35-107); assay: as above
T4 construct: also called human Gro-beta
T4 sequence: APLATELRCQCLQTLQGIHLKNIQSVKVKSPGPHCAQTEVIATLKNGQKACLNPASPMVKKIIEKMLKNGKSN
Protocol: as §1, §2

human CXCL3 (Gro gamma) = target: T5, human CXCL3 (Gro gamma) (human, UniProt P19876 35-107); assay: as above
T5 construct: also called human Gro-gamma
T5 sequence: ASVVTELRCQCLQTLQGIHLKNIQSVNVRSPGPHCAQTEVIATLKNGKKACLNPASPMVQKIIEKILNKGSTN
Protocol: as §1, §2

human CXCL5 (ENA-78) = target: T6, human CXCL5 (ENA-78) (human, UniProt P42830 41-114); assay: as above
T6 construct: also called human ENA-78
T6 sequence: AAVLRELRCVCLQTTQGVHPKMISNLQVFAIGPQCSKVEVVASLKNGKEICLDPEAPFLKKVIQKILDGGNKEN
Protocol: as §1, §2

human CXCL6 (GCP-2) = target: T7, human CXCL6 (GCP-2) (human, UniProt P80162 40-114); assay: as above
T7 construct: also called human GCP-2
T7 sequence: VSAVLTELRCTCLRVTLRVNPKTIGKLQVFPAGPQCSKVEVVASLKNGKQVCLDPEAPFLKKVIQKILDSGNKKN
Protocol: as §1, §2

human CXCL7 (NAP-2) = target: T8, human CXCL7 (NAP-2) (human, UniProt P02775 59-128); assay: as above
T8 construct: also called human NAP-2
T8 sequence: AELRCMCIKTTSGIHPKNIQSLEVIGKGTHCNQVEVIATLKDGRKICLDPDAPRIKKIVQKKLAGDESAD
Protocol: as §1, §2

human CXCL8 (IL-8) [7] = target: T2, human CXCL8 (IL-8); assay: as above
Protocol: as §1, §2

[8] = target: human CXCL8 point mutant I10A (human, UniProt P10145 28-99, limits assumed); assay: SPR (Biacore 2000), antibody captured on Protein A, CXCL8 variant as analyte, 25 C
Protocol: (§3) Binding kinetics are tested on a Biacore 2000 instrument with Biacore 2000 Evaluation Software Version 4.1 as described above.
(§4) The on-rate (kₒₙ) and off-rate (koff) for each ligand are evaluated using a “1:1 (mass transfer) Binding” binding model. The affinity (KD) is calculated from the binding kinetics according to the relationship: KD=koff/kₒₙ.

[9] = target: human CXCL8 point mutant A35P (human, UniProt P10145 28-99, limits assumed); assay: as above
Protocol: as §3, §4

[10] = target: human CXCL8 point mutant I40A (human, UniProt P10145 28-99, limits assumed); assay: as above
Protocol: as §3, §4

[11] = target: T3, human CXCL8 point mutant L49A; assay: as above
Protocol: as §3, §4

human CXCL8 (IL-8) [12] = target: T2, human CXCL8 (IL-8); assay: as above
Protocol: as §3, §4

B1: Antibody 1 (antibody, human IgG4 S228P, kappa, V domains shown)
VH: QVQLVQSGAEVKKPGASVKVSCKASGYEFTSYWIHWVRQAPGQGLEWMGNISPNSGSANYNEKFKSRVTMTRDTSTSTVYMELSSLRSEDTAVYYCAREGPYSYYPSREYYGSDLWGQGTLVTVSS
VL: EIVLTQSPATLSLSPGERATLSCRASQSISNNLHWYQQKPGQAPRLLIYYTSRSVSGIPARFSGSGSGTDFTLTISSLEPEDFAVYYCGQNNEWPEVFGGGTKVEIKR
notes: Full-length IgG4 antibody expressed in NS0 cells
Human CXCL1 (Gro alpha) [1]
  IC50, chemotaxis of primary human neutrophils, CXCL1 at 5 nM: 18.5 nM
  IC50, chemotaxis of primary human neutrophils, CXCL1 at 20 nM: 40.3 nM
Human CXCL8 (IL-8) [2]
  IC50, chemotaxis of primary human neutrophils, CXCL8 at 5 nM: 26.4 nM
  IC50, chemotaxis of primary human neutrophils, CXCL8 at 10 nM: 43.7 nM
[3]
  IC50 (U937 FLIPR neutralization): 1.5 µg/mL
Human CXCL8 (IL-8) [4]
  IC50 (U937 FLIPR neutralization): 0.9 µg/mL
[5]
  binding result: no binding
Human CXCL1 (Gro alpha) [6]
  Kd: 0.113 nM
  koff: 0.000105 s⁻¹
  kon: 930000 M⁻¹ s⁻¹
Human CXCL2 (Gro beta)
  Kd: 0.171 nM
  koff: 0.000131 s⁻¹
  kon: 773000 M⁻¹ s⁻¹
Human CXCL3 (Gro gamma)
  Kd: 0.172 nM
  koff: 0.000123 s⁻¹
  kon: 716000 M⁻¹ s⁻¹
Human CXCL5 (ENA-78)
  Kd: 0.226 nM
  koff: 0.000122 s⁻¹
  kon: 543000 M⁻¹ s⁻¹
Human CXCL6 (GCP-2)
  Kd: 0.818 nM
  koff: 0.000578 s⁻¹
  kon: 707000 M⁻¹ s⁻¹
Human CXCL7 (NAP-2)
  Kd: 0.181 nM
  koff: 0.000161 s⁻¹
  kon: 900000 M⁻¹ s⁻¹
Human CXCL8 (IL-8) [7]
  Kd: 0.384 nM
  koff: 0.00013 s⁻¹
  kon: 339000 M⁻¹ s⁻¹
[8]
  Kd: 1.26 nM
  koff: 0.000344 s⁻¹
  kon: 277000 M⁻¹ s⁻¹
[9]
  Kd: 4.74 nM
  koff: 0.00497 s⁻¹
  kon: 1.06e+06 M⁻¹ s⁻¹
[10]
  Kd: 27.1 nM
  koff: 0.000424 s⁻¹
  kon: 16100 M⁻¹ s⁻¹
[11]
  Kd: 3.83 nM
  koff: 0.000544 s⁻¹
  kon: 143000 M⁻¹ s⁻¹
Human CXCL8 (IL-8) [12]
  Kd: 0.236 nM
  koff: 0.000441 s⁻¹
  kon: 3.03e+06 M⁻¹ s⁻¹

B2: Antibody 2 (antibody, human IgG4 S228P, kappa, V domains shown)
VH: QVQLVQSGAEVKKPGASVKVSCKASGYEFTSYWIHWVRQAPGQGLEWMGNISPNSGSANYNEKFKSRVTMTRDTSTSTVYMELSSLRSEDTAVYYCAREGPYSYYPSRQYYGSDLWGQGTLVTVSS
VL: EIVLTQSPATLSLSPGERATLSCRASQSISNNLHWYQQKPGQAPRLLIYYTSRSVSGIPARFSGSGSGTDFTLTISSLEPEDFAVYYCGQNNEWPEVFGGGTKVEIKR
notes: as for B1
Human CXCL1 (Gro alpha) [6]
  Kd: 0.243 nM
  koff: 0.000153 s⁻¹
  kon: 628000 M⁻¹ s⁻¹
Human CXCL2 (Gro beta)
  Kd: 0.18 nM
  koff: 2.05e-05 s⁻¹
  kon: 114000 M⁻¹ s⁻¹
Human CXCL3 (Gro gamma)
  Kd: 0.379 nM
  koff: 0.000176 s⁻¹
  kon: 465000 M⁻¹ s⁻¹
Human CXCL5 (ENA-78)
  Kd: 0.354 nM
  koff: 0.000151 s⁻¹
  kon: 427000 M⁻¹ s⁻¹
Human CXCL6 (GCP-2)
  Kd: 0.849 nM
  koff: 0.000611 s⁻¹
  kon: 719000 M⁻¹ s⁻¹
Human CXCL7 (NAP-2)
  Kd: 0.418 nM
  koff: 0.000218 s⁻¹
  kon: 521000 M⁻¹ s⁻¹
Human CXCL8 (IL-8) [7]
  Kd: 0.473 nM
  koff: 0.000124 s⁻¹
  kon: 261000 M⁻¹ s⁻¹

From patent US20180362631A1 (Eli Lilly, published 2018)
